Series [1] addresses GST-MyoVa-GTD. Briefly: Quantitative GST-pulldown, fluorescence spectroscopy, Spir-2-linker. The following applies: 100 nM His6-mCherry-Spir-2-linker (aa 361–519); SPECS buffer (1x PBS, 50 mM NaCl), 20°C; depletion of mCherry fluorescence (ex 548 nm, em 610 nm); ± SEM, n = 4 experimental repeats; read-out: dissociation constant (Kd). It is filed as binding, Mus musculus. On the procedure: (§1) For GST-pulldown assays, 50 µg of GST-fusion protein was coupled to GSH-Sepharose 4B beads (1:1 suspension) for 1 hr at 4°C on a rotating wheel. Beads were washed twice with pulldown buffer and subsequently incubated with 20 µg His6-mCherry-fusion peptides for 2 hr, 4°C on a rotating wheel. In order to identify the tripartite Spir-2:MyoVa:Rab11a complex, 65 µg GST-Spir-2-GTBM-SB-FYVE was coupled to beads. Subsequently, beads were incubated with 40 µg MyoVa-GTD and 35 µg Rab11a-Q70L simultaneously for 2 hr. Beads were washed four times with pulldown buffer and bound proteins were eluted by 1x Laemmli buffer and denatured at 95°C for 10 min. Pulled proteins were analyzed by immunoblotting.
GST-pulldown assays were performed as described above with increasing concentrations of GST-MyoVa/b-GTD fusion proteins and 100 nM His6-mCherry-Spir-2-linker peptide in SPECS buffer (1x PBS, 50 mM NaCl). Beads were pelleted and the supernatant was centrifuged for 10 min at 20,000 x g to remove potential debris that could disturb the fluorescence measurement. […] The concentration-dependent binding of MyoVa/b-GTD to the Spir-2-linker was determined by fluorospectrometric analysis using FluoroMax-4 Spectrofluorometer (Horiba Jobin Yvon, Bensheim, Germany). The mCherry red fluorescent protein was excited at 548 nm and the emission at 610 nm was recorded (emission maximum). […]

The subject of series [2] is Spir-2:MyoVa:Rab11 tripartite complex. Kind of series: Analytical gel filtration. The format is binding, Homo sapiens. The following applies: Superdex 200 10/30; 50 mM Tris pH 8.0, 150 mM NaCl, 2 mM MgCl2, 2 mM TCEP. On the procedure:
(§2) Complex formations were analyzed by analytical gel-filtration using Superdex 200 10/30 Increase column (GE Healthcare Life Sciences) and UV light absorbance at 280 nm and 260 nm and Visible light absorbance at 587 nm at flow rate of 0.75 ml/min in 50 mM Tris pH 8.0, 150 mM NaCl, 2 mM MgCl2, 2 mM TCEP buffer. Fractions of 500 µl were collected and analyzed by SDS-PAGE.
(§3) A 100 µl sample of His6-Rab11a-1-173-Q70L at 6 mg/ml, or of MyoVa-GTD at 5 mg/ml or of His6-mCherry-Spir-2-linker at 6 mg/ml were centrifuged at 10,000 x g for 10 min and injected into the column to monitor reference elution profiles of the individual proteins. The proteins were mixed pairwise to the same final concentrations and incubated 30 min at 4°C in a total volume of 100 µl. The two-component complexes (His6-mCherry-Spir-2-linker:MyoVa-GTD and MyoVa-GTD:His6-Rab11a-1-173-Q70L) were confirmed by the elution peak shifts and SDS-PAGE analysis. […] The tripartite His6-mCherry-Spir-2-linker:MyoVa-GTD:His6-Rab11a-1-173-Q70L complex was analyzed at the same concentration of the individual components and confirmed by SDS-PAGE.

The test system of series [3] is GST-MyoVa-GTD. Kind of series: GST-pulldown with purified proteins. Conditions: purified His6-mCherry-Spir-2-linker mutant L408A,L409A; N = 4. The format is binding, Mus musculus. On the procedure:
as §1

For another series, the system named is GST-MyoVb-GTD. Briefly: GST-pulldown with purified proteins. The format is binding, Homo sapiens. The following applies: purified His6-mCherry-Spir-2-linker mutant L408A,L409A; N = 4. The method, then: as §1
Series [4] can be described thus: Analytical gel filtration, individual protein. The format is physicochemical. The following applies: Figure 5—figure supplement 2. On the procedure:
as §2, §3
On the technique in general: In gel filtration, larger molecules generally elute earlier.

Series [5] concerns the target T1, MyoVc-GTD (human, aa 1350-1742) (human, UniProt Q9NQX4 1350-1742).
T1 chain: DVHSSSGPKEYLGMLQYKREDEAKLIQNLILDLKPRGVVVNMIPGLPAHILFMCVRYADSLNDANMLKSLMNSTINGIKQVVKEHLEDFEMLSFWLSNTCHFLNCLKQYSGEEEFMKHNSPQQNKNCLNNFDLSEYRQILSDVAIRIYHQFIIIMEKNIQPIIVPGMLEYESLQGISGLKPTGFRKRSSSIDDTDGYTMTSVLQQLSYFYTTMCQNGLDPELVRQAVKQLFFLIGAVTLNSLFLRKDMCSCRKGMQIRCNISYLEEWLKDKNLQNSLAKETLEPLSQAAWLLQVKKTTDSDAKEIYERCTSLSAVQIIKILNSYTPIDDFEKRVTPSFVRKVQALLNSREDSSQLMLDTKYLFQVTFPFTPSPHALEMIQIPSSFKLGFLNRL
Kind of series: MST.

The target in series [6] is T2, MyoVc-GTD (human, aa 1350-1742) (human, UniProt Q9NQX4 1350-1742).
T2 construct: myosin Vc globular tail domain, human, residues 1350-1742; also called hs-MyoVc-GTD; source: E. coli BL21(DE3) or BL21-CodonPlus-RILP, purified (HisTrap, rTEV, Superdex 200); not shown: His6, N-terminal, cleaved
T2 sequence (looked up): T1 chain
Briefly: MST; 500 nM fluorescein-Spir-2 peptide, MyoVc-GTD 97 uM to 2.96 nM; 21.5°C; 50 mM Tris pH 8.0, 250 mM NaCl, 2 mM MgCl2, 2 mM TCEP, 5% glycerol. The following applies: both partners purified.

In series [7] the target is T3, MyoVb-GTD (human, aa 1456-1848) (human, UniProt Q9ULV0 1456-1848).
T3 construct: myosin Vb globular tail domain, human, residues 1456-1848; Produced as in Pylypenko et al., 2013; also called hs-MyoVb-GTD; source: E. coli BL21(DE3) or BL21-CodonPlus-RILP, purified (HisTrap, rTEV, Superdex G200); not shown: His6, N-terminal, cleaved
T3 sequence (looked up): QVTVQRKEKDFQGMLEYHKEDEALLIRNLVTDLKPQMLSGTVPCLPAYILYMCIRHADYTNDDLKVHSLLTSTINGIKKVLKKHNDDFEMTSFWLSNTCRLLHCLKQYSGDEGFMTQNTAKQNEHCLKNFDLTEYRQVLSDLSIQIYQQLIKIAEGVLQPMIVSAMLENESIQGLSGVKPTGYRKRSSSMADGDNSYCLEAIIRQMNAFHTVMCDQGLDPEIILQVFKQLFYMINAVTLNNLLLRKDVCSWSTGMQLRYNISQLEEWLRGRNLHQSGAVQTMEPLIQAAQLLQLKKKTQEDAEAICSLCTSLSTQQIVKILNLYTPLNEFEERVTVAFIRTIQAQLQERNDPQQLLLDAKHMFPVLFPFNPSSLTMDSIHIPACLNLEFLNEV
Kind of series: fluorescence polarisation; fluorescence anisotropy; 1 uM fluorescein-Spir-2-401-427 titrated with MyoVa-GTD or MyoVb-GTD (50 nM-5 uM); 25°C; 100 mM Tris-HCl pH 8.0, 150 mM NaCl, 2 mM MgCl2, 2 mM TCEP, 5% glycerol. Conditions: both partners purified. Background: In fluorescence polarisation assays a small probe gives low polarisation when free and higher when bound to something large.

Positions count from the first letter of the chain named. In names and notes the source's numbering stands. Ends that are not written are not given here. * marks the point of attachment. 5FAM = O=C1OC2(c3ccc(O)cc3Oc3cc(O)ccc32)c2ccc(C(=O)*)cc21; Ahx = NCCCCCC(=O)O

B1: mCherry-Spir2-linker: His6-mCherry-hs-Spir2-linker aa 361 - 519 (protein)
chain: GEGWAARGFGSLPCILNACSGDAKSTSCINLSVTDAGGSAQRPRPRVLLKAPTLAEMEEMNTSEEEESPCGEVTLKRDRSFSEHDLAQLRSEVASGLQSATHPPGGTEPPRPRAGSAHVWRPGSRDQGTCPASVSDPSHPLLSNRGSSGDRPEASMTPD
modifications: left off: His6, N-terminal, kept | mCherry, N-terminal, kept
For the molecule B1, the Kd – broadly, the constant that tells how readily two partners part at equilibrium – on GST-MyoVa-GTD [1] was determined as 728 ± 113 nM. For the same molecule, the “co-elution in gel filtration in words” value in series [2] is given as “co-elution of all three proteins”.

B2: Spir-2-linker-LALA: His6-mCherry-hs-Spir2-linker-L408A,L409A (protein)
chain: B1 chain with L48A, L49A
modifications: left off: His6, N-terminal, kept | mCherry, N-terminal, kept
notes: His6-mCherry-hs-Spir2-linker-L408A,L409A
In the case of B2, the “binding to GST-MyoVa-GTD in words” value in the series with GST-MyoVa-GTD [3] is “largely impairs binding”. Moreover, the “binding to GST-MyoVb-GTD in words” value in the series with GST-MyoVb-GTD is “largely impairs binding”.

B3: MyoVa-GTD: purified hs-MyoVa-GTD aa 1461 - 1853; in Figure 3E the label stands for AcGFP-mm-MyoVa-GTD donor alone (protein)
chain: IRPVNIPRKEKDFQGMLEYKKEDEQKLVKNLILELKPRGVAVNLIPGLPAYILFMCVRHADYLNDDQKVRSLLTSTINSIKKVLKKRGDDFETVSFWLSNTCRFLHCLKQYSGEEGFMKHNTSRQNEHCLTNFDLAEYRQVLSDLAIQIYQQLVRVLENILQPMIVSGMLEHETIQGVSGVKPTGLRKRTSSIADEGTYTLDSILRQLNSFHSVMCQHGMDPELIKQVVKQMFYIIGAITLNNLLLRKDMCSWSKGMQIRYNVSQLEEWLRDKNLMNSGAKETLEPLIQAAQLLQVKKKTDDDAEAICSMCNALTTAQIVKVLNLYTPVNEFEERVSVSFIRTIQMRLRDRKDSPQLLMDAKHIFPVTFPFNPSSLALETIQIPASLGLGFIS
modifications: left off: His6, N-terminal, cleaved
As for B3, in series [2], the “co-elution in gel filtration in words” value is on record as “co-elution of all three proteins”. Moreover, the “oligomeric state in solution” value in series [4] is reported as “monomeric in solution”.

B4: Fluorescein-Spir-2-GTBM peptide (peptide)
peptide: {5FAM-Ahx}-QRPRPRVLLKAPTLAEMEEMNTSEEEE
notes: also called Fluorescein-Spir2 peptide; fluorescein labeled Spir-2-401-427 peptide; source: synthetic peptide, bought: GenScript
Take B4: the affinity in series [5], expressed as Kd, was 2880 nM. For the same molecule, the binding result in series [6] and in series [7] was “binds” throughout.

(Values after publication PMC5021521, “Coordinated recruitment of Spir actin nucleators and myosin V motors to Rab11 vesicle membranes” (eLife, 2016).)
